From patent US6602687B1, “DNA encoding human ciliary neurotrophic factor and method for producing the protein encoded thereby” (Regeneron Pharmaceuticals, Inc., priority 1989, dated 2003)

Assays:
[1] = test system: AchE-containing ventral spinal cord neurons; experiment: Count of AchE-containing neurons in ventral spinal cord cultures; type: cell-based, rat; conditions: CNTF 10 ng/ml at plating; 7 days
Experimental: Sprague-Dawley rats (HSD or Zivic-Miller) were used for all experiments. Pregnant rats (E14) were sacrificed as described in 10.1.1.
Spinal cords were removed aseptically from rat embryos as described in 10.1.2. The cord tissues were minced into small pieces and incubated in 0.1% trypsin (GIBCO) and 0.01% deoxyribonuclease type 1 (Sigma) at 37° C. for 20 minutes. Trypsin solution was then removed, rinsed and replaced with medium consisting of 45% Eagle's minimum essential medium (MEM), 45% Ham's nutrient mixture F12 (F12), 5% fetal calf serum (GIBCO), 5% horse serum (GIBCO) glutamine (2 mM), penicillin G (0.5 U/ml), and streptomycin (0.5 ug/ml). This was then mechanically dissociated twice by gentle trituration through a Pasteur pipet in the same medium, and the supernatants were pooled and filtered through a nylon filter (Nitex, Tetko; 40 um). Total cell number yielded was determined by hemocytometer counting in the presence of trypan blue. Dissociated ventral cells were then plated at a density of approximately 50,000 cells/cm^2 on dishes coated with poly-L-ornithine (10 ug/ml) and laminin (5 ug/ml). Treatments were given on the day of plating, except for delayed addition experiments in which treatments were given on days 2 or 6. Cultures were maintained at 37° C. in 95% air/5% CO2 atmosphere at nearly 100% relative humidity. Culture medium was changed every 3 to 4 days. […]

[2] = test system: metrizamide gradient purified ventral spinal cord motorneurons; experiment: CAT activity in metrizamide gradient-purified motorneurons; type: cell-based, rat; conditions: CNTF 10 ng/ml; purified motorneuron cultures
Experimental: Cultures were harvested by lysing the cells in a 20 mM Tris-HCl (pH 8.6) solution containing 0.1% Triton X-100. Two microliters of the cell lysate was removed and assayed for CAT activity according to the micro-Fonnum procedure (Fonnum, 1975, J. Neurochem. 24:407-409). The final substrate composition consisted of 0.2 mM [1-^14C] Acetyl-CoA (NEN, 54.4 mCi/mmol), 300 mM NaCl, 8 mM choline bromide, 20 mM EDTA, and 0.1 mM neostigmine in 50 mM NaH2PO4 (pH 7.4) buffer. At these enzyme and substrate concentrations, the enzymatic reaction was linear for 90-120 minutes. The specificity of the induction for CAT was tested by the addition of a specific inhibitor of CAT activity, N-hydroxyethyl-4-(1-napthylvinyl) pyridium (HNP), during the assay (White and Cavallito, 1970, J. Neurochem. 17:1579-1589).
The fractionation procedure (Dohrman et al., 1986, Dev. Biol. 118:209-221) was a modification of the method described by Schnaar and Schaffner (1981, J. Neurosci. 1:204-207). Metrizamide was dissolved in F12:MEM(1:1) medium, and a step gradient consisting of 3 ml 17% metrizamide, 3 ml 12% metrizamide and 3 ml 8% metrizamide was prepared. The following steps were all carried out at 4° C. The ventral horn cell suspension (2.5 ml) obtained as described previously was layered over the step gradient, the tube was centrifuged at 2500×g for 20 minutes using a swing-out rotor. […]

B1: CNTF: ciliary neurotrophic factor; recombinant rat CNTF in Sections 10, 15, 17, purified rat sciatic nerve CNTF in Section 11; see endpoint conditions (protein, UniProt P20294 1-200, looked up)
Ciliary neurotrophic factor: MAFAEQTPLTLHRRDLCSRSIWLARKIRSDLTALMESYVKHQGLNKNINLDSVDGVPVASTDRWSEMTEAERLQENLQAYRTFQGMLTKLLEDQRVHFTPTEGDFHQAIHTLMLQVSAFAYQLEELMVLLEQKIPENEADGMPATVGDGGLFEKKLWGLKVLQELSQWTVRSIHDLRVISSHQMGISALESHYGAKDKQM
increase in AchE-positive neurons versus untreated controls [1]: 2.5 fold | increase in CAT activity versus untreated cultures [2]: 10 fold
